The experiment deals with 6Xhis-tagged AldE (class 3 aldehyde dehydrogenase encoded by synpcc7942_0489) from S. elongatus PCC7942 (S. elongatus PCC7942). The experiment in a line: SEC; HiLoad 16/60 SuperDex200 gel filtration column in 150 mM NaCl/50 mM Tris, 7.5/1 mM EDTA; elution compared with MW standards. (SEC sorts molecules by how far they enter the pores of the column.)

In general, stoichiometry N refers to a count of units in the complex or per binding partner. As to “6Xhis-tagged AldE (class 3 aldehyde dehydrogenase encoded by synpcc7942_0489) from S. elongatus PCC7942 (enzyme)”, the stoichiometry N is 2.

The record behind these values is publication PMC3594298.
